Reference: PMC5103067, “Structural basis of GM-CSF and IL-2 sequestration by the viral decoy receptor GIF” (Nature Communications, 2016)

Columns and labels:
[1] = biological target: GIF H232A, residues 1-265, C-terminal AviTag, biotinylated (Orf virus) (UniProt Q9J5U5); experiment: BLI; biotinylated GIF (wild type or mutant) on streptavidin-coated biosensors, quenched with biocytin; ligand GM-CSF 1-8 uM or IL-2 3.75-30 nM; PBS pH 7.4, 0.01% BSA, 0.002% Tween-20; 298 K; Octet RED96; 1:1 interaction model; averages of triplicates
[2] = biological target: GIF K211A, residues 1-265, C-terminal AviTag, biotinylated (Orf virus) (UniProt Q9J5U5); experiment: as above
[3] = biological target: GIF R106A/R188A, residues 1-265, C-terminal AviTag, biotinylated (Orf virus) (UniProt Q9J5U5); experiment: as above
[4] = biological target: GIF R188A, residues 1-265, C-terminal AviTag, biotinylated (Orf virus) (UniProt Q9J5U5); experiment: as above
[5] = biological target: GIF R45A, residues 1-265, C-terminal AviTag, biotinylated (Orf virus) (UniProt Q9J5U5); experiment: as above
[6] = biological target: GIF R45A/R106A, residues 1-265, C-terminal AviTag, biotinylated (Orf virus) (UniProt Q9J5U5); experiment: as above
[7] = biological target: T1, Orf virus GM-CSF/IL-2 inhibition factor (GIF), residues 1-265, C-terminal His6-tag (Orf virus, UniProt Q9J5U5, N-linked glycans); experiment: SEC-MALS; complexes purified after co-expression of GIF and cytokine in HEK293T; 1-2 mg/ml; Superdex Increase 10/300 GL in HBS pH 7.5, 298 K; settings: both partners purified
T1 construct: also called His-tagged GIF; Orf GIF; source: HEK293T, transient expression (pHLsec), secreted; alone purified by IMAC and SEC with 0.15% CHAPS
T1 sequence: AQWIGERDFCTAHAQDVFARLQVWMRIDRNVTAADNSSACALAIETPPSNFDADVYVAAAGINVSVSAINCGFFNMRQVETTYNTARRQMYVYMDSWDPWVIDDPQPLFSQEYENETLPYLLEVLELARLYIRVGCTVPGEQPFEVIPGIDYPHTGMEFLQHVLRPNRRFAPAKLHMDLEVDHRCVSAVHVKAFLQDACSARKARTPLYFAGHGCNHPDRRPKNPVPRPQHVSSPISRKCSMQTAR

[8] = biological target: T2, Biotinylated Orf GIF, residues 1-265, C-terminal AviTag (Orf virus, UniProt Q9J5U5, biotin (AviTag, by co-expressed E. coli BirA)); experiment: BLI
T2 chain: T1 sequence

[9] = biological target: T3, Biotinylated Orf GIF, residues 1-265, C-terminal AviTag (Orf virus, UniProt Q9J5U5, biotin (AviTag, by co-expressed E. coli BirA)); experiment: BLI; biotinylated GIF on streptavidin sensors, quenched with biocytin; cytokine in solution (GM-CSF 1-8 μM, IL-2 3.75-30 nM); PBS pH 7.4, 0.01% BSA, 0.002% Tween-20, 298 K; 1:1 model, triplicates; settings: one partner purified
T3 construct: also called biotinylated GIF; wild-type GIF; source: HEK293T, co-transfected with BirA (pDisplayBirA-ER), expression medium desalted into HBS; not shown: AviTag, C-terminal, kept
T3 sequence: T1 sequence

B1: ovine GM-CSF (granulocyte macrophage colony-stimulating factor), residues 18-144, as used as the ligand in BLI (ligand)
chain: APTRQPSPVTRPWQHVDAIKEALSLLNDSTDTAAVMDETVEVVSEMFDSQEPTCLQTRLELYKQGLRGSLTSLTGSLTMMASHYKKHCPPTQETSCETQIITFKSFKENLKDFLFIIPFDCWEPVQK
[1]
  Kd: 670 nM
[2]
  Kd: 3700 nM
[3]
  Kd: 270 nM
[4]
  Kd: 570 nM
[5]
  Kd: 280 nM
[6]
  Kd: 380 nM

B2: ovine GM-CSF, residues 18-144, C-terminal His6-tag, from HEK293T (ligand, UniProt P28773 18-144, looked up)
chain: B1 chain
notes: also called oGM-CSF; source: HEK293T, transient expression (pHLsec); purified (TALON IMAC, SEC) or co-expressed with GIF and purified as a complex
[7]
  stoichiometry N: 2 cytokines per GIF dimer (2:2)

B3: ovine GM-CSF as used as ligand in bio-layer interferometry (ligand, UniProt P28773 18-144, looked up)
chain: B1 chain
notes: also called oGMCSF; oGM-CSF
[8]
  koff: 6.2e-05 s⁻¹
[9]
  Kd: 27 nM

B4: ovine IL-2 (interleukin-2), residues 21-155, as used as the ligand in BLI (ligand)
chain: APTSSSTGNTMKEVKSLLLDLQLLLEKVKNPENLKLSRMHTFNFYMPKVNATELKHLKCLLEELKLLEEVLDLAPSKNLNTREIKDSMDNIKRIVLELQGSETRFTCEYDDATVKAVEFLNKWITFCQSIYSTMT
[1]
  Kd: 0.63 nM
[2]
  Kd: 0.46 nM
[3]
  Kd: 5.3 nM
[4]
  Kd: 4.8 nM
[5]
  Kd: 0.69 nM
[6]
  Kd: 0.45 nM

B5: ovine IL-2, residues 21-155, C-terminal His6-tag, from HEK293T (ligand, UniProt P19114 21-155, looked up)
chain: B4 chain
notes: also called oIL-2; source: HEK293T, transient expression (pHLsec); purified (TALON IMAC, SEC) or co-expressed with GIF and purified as a complex
[7]
  stoichiometry N: 2 cytokines per GIF dimer (2:2)

B6: ovine IL-2 as used as ligand in bio-layer interferometry (ligand, UniProt P19114 21-155, looked up)
chain: B4 chain
notes: also called oIL-2
[8]
  koff: 0.00015 s⁻¹
[9]
  Kd: 0.47 nM
